# Reference: paper doi:10.1101/749432
# Target: endothelial protein C receptor (EPCR), residues 16 to 210, biotinylated on the BAP tag (human) (UniProt Q9UNN8)
# Assay: SPR
# endothelial protein C receptor (EPCR), residues 16 to 210, biotinylated on the BAP tag (human), sequence (Q9UNN8 16-210): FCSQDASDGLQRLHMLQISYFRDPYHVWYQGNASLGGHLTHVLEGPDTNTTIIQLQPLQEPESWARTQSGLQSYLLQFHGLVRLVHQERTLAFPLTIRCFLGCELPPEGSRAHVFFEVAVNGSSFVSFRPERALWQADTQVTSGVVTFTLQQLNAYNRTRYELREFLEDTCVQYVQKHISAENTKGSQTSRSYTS
substance,measurement,value
HB3var03 CIDRα1.4 domain D576A K642A double mutant (domain or fragment),Kd,220 nM
